Test results as given in paper doi:10.64898/2025.12.08.693081.
Like-named read-outs stand apart in the source and are kept apart here.

How the values were obtained:
Test in all cases: cryo-EM structure
[1] = target: Angavokeley (AngV) fusion (F) protein ectodomain (Angavokeley virus (AngV))
[2] = target: Angavokeley (AngV) fusion (F) protein ectodomain (Angavokeley virus (AngV)); remark: listed apart in the source
[3] = target: Hendravirus alpha2 -F protein (Hendra virus) (UniProt O89342)

Substance	stoichiometry N [1]	stoichiometry N [2]	stoichiometry N [3]
Angavokeley (AngV) fusion (F) protein ectodomain (domain or fragment)	6	3	–
Hendravirus alpha2 -F protein (from UniProt O89342 27-494) (domain or fragment)	–	–	6
